B1: C1orf137 (parent)
chain: RQHHHQSSFPGSLPQETNLTLKVC
B2: RIPK4 (parent)
chain: VSVNAQTLDGRTPLHLAAQRGHYR

Variants of: B1
Experiment: protein stability index of a GFP-peptide fusion (GPS, HEK-293T) (PSI 1-6); higher = more stable
Conditions: c terminus: a fixed tail appended
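Also: lentivirally expressed fusions sorted by FACS into six bins by GFP to DsRed ratio, PSI derived from sequencing read proportions per bin multiplied by bin number.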

Protein stability index, by site and new letter:
Q6: E 2.88 | P 2.55 | A 2.61 | S 3.25 | N 2.71 | K 3.15 | V 2.89 | H 3.36 | D 3.39 | W 2.27 | I 2.37 | T 2.49 | L 2.49 | R 4.03 | M 2.23 | C 1.72 | Y 2.9 | G 3.22 | F 2.3
R1: M 2.87 | G 3.69 | H 3.2 | S 3.4 | Q 3.44 | L 2.44 | V 3.05 | E 3.58 | N 2.7 | C 1.97 | T 3.12 | K 2.88 | Y 2.07 | W 3.5 | I 3.28 | P 2.79 | D 3.79 | A 2.7 | F 1.63
F9: A 3.97
S7: Q 3.05 | H 2.83 | R 3.34 | V 2.89 | E 2.3 | P 3.52 | A 2.71 | D 3.23 | F 2.36 | I 2.77 | N 3.68 | G 3.18 | T 3.34 | L 2.79 | K 3.11 | Y 2.54 | W 2.43 | C 2.43 | M 2.43
H4: V 2.82 | E 3.15 | M 2.37 | R 1.94 | Q 3.9 | T 3.36 | N 3.14 | F 2.74 | I 2.34 | Y 2.89 | D 3.56 | L 3.13 | K 3.26 | A 2.94 | W 2.87 | S 2.96 | P 3.19 | C 2.87 | G 3.52
H3: L 2.34 | F 2.04 | A 2.84 | K 3.31 | Y 2.57 | Q 3.06 | T 3.13 | E 3.69 | D 2.87 | V 3.09 | C 2.54 | M 3.25 | R 2.88 | S 3.36 | P 2.77 | N 2.75 | G 3.11 | I 3.06
S8: I 3.03 | M 2.68 | E 3.85 | W 2 | C 2.67 | F 1.84 | A 2.81 | K 3.07 | D 2.89 | L 2.45 | T 2.71 | R 2.57 | G 2.47 | P 2.71 | Y 2.02 | V 2.78 | H 2.45 | N 3.08 | Q 2.9
H5: P 2.9 | E 3.97 | M 2.63 | K 2.34 | F 2.33 | S 2.51 | L 2.73 | T 3.28 | I 2.66 | Q 2.65 | A 3.06 | W 2.27 | N 2.91 | Y 2.85 | C 3.25 | G 2.81 | R 3.64 | D 3.36 | V 3.23
Q2: T 3.45 | G 3.57 | P 2.77 | W 2.58 | E 2.59 | I 2.28 | R 3.04 | S 2.43 | D 3.06 | V 2.47 | A 2.67 | C 2.04 | F 3.96 | L 2.4 | K 2.31 | H 2.27 | M 2.88 | N 2.62 | Y 2.63

Variants of: B2
Experiment: as above
Conditions: c terminus: a fixed tail appended

Protein stability index of substitutions, site by site:
R24: A 2.81
R20: E 3.43
Q6: E 2.95
N4: P 3.42 | M 2.66
A17: H 3.27 | V 3.35
T12: P 3.54 | Q 3.57 | R 3.23
P13: M 2.42
V3: I 2.67
L8: E 4.33
L14: C 1.96
D9: Y 2.48

Source: the supplement of paper PMC10567573
